B1: APE1142 (antibody, IgG1, V domains shown)
VH: EVQLLESGGGLVQPGGSLRLSCAASGFTFSSYAMTWVRQAPGKGLEWVSVISGSGSTYYADSVKGRFTISRDNSKNTLYLQMNSLRAEDTAVYYCARRGLRYNYFDYWGQGTTLTVSS
VL: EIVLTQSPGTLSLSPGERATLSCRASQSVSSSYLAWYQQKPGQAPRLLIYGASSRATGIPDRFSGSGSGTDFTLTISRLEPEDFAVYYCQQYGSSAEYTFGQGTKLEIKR
B2: APE1224 (antibody, V domains shown)
VH: EVQLLESGGGLVQPGGSLRLSCAASGFTFSSYAMTWVRQAPGKGLEWVSAISGSGSTYYADSVKGRFTISRDNSKNTLYLQMNSLRAEDTAVYYCARRGLRYNYFDYWGQGTTLTVSS
VL: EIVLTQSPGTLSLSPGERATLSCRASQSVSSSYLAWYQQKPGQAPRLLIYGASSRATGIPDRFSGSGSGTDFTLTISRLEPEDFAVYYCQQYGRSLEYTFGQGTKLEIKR

How the values were obtained:
complement protein C5 = complement protein C5 (UniProt P01031 19-673; P01031 678-1676); test: cell-based or functional assay
complement protein C5, sequence (P01031 19-673 limits assumed, chain 1 of 2): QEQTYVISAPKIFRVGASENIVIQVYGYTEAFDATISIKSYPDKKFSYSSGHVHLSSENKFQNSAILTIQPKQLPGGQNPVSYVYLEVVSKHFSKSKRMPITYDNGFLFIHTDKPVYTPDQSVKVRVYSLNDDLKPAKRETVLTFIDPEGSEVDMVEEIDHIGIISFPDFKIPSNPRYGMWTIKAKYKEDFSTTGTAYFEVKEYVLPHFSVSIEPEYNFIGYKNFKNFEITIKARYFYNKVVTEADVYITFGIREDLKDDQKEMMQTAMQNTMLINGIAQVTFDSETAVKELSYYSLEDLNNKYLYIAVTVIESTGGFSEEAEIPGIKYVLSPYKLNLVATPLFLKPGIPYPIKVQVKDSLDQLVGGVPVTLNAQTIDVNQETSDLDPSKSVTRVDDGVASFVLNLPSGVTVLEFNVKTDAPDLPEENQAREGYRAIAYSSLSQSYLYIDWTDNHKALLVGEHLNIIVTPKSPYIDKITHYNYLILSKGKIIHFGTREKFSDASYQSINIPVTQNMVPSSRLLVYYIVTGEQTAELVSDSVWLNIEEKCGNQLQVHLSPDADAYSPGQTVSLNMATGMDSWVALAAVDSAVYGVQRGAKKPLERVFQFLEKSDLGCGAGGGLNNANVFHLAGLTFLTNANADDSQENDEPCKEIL
complement protein C5, sequence (P01031 678-1676 limits assumed, chain 2 of 2): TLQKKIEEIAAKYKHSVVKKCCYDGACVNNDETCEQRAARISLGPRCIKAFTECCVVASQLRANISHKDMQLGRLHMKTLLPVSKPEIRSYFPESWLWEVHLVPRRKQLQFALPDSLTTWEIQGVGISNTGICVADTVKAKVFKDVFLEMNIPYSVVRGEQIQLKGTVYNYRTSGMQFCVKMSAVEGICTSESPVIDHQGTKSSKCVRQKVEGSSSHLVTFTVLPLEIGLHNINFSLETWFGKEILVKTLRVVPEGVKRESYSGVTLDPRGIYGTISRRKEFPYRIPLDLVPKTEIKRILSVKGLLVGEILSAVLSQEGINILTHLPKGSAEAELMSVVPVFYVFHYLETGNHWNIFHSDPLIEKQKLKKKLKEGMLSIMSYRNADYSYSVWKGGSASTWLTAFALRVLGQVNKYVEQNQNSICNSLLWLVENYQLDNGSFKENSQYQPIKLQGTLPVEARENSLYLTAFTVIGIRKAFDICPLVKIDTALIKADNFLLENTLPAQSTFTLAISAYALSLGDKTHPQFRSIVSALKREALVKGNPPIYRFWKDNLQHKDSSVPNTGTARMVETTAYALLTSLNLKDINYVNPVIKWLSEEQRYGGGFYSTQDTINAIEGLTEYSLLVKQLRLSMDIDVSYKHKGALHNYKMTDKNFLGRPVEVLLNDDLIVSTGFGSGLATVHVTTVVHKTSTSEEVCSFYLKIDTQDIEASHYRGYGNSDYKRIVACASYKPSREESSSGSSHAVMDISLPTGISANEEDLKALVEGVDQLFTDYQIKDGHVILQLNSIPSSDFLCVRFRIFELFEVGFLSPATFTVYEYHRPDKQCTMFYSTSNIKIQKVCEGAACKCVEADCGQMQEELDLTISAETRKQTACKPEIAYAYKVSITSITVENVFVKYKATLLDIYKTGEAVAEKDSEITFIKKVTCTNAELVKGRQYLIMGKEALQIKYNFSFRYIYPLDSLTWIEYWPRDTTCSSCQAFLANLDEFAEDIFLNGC

C5-C345C = target: T1, C5-C345C (Homo sapiens (Human), UniProt P01031 1530-1676); test: BIACORE screening
T1 construct: C-terminal 147 amino acid residues of the 1648 residue C5 protein; A Myc-tagged or Dylight-650-labelled form was used for FACS selection; In the BIACORE analyses it is named only 'C5-C345C' analyte, and no tag is stated; also called C345C domain of complement C5 protein; C5 domain C5-C345C
T1 sequence (P01031 1530-1676 limits assumed): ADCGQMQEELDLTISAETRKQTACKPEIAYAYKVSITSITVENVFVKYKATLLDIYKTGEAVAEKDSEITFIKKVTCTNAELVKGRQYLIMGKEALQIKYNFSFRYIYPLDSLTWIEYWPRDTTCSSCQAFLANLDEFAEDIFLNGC

Binder	inhibition of hemolysis of antibody-coated sheep erythrocytes (classical complement pathway, 1% normal human serum) (complement protein C5)	Kd (C5-C345C)	fold improvement in KD over APE777 (C5-C345C)
B1	1 µM	–	–
B2	1 µM	0.2 nM	1000 fold
